From patent publication US20150165065A1 (AVIDBIOTICS, published 2015)

B1: MICA-α3-iFv.2 (designed binder)
chain: EPHSLRYNLTVLSWDGSVQSGFLTEVHLDGQPFLRCDRQKCRAKPQGQWAEDVLGNKTWDRETRDLTGNGKDLRMTLAHIKDQKEGLHSLQEIRVCEIHEDNSTRSSQHFYYDGELFLSQNLETKEWTMPQSSRAQTLAMNVRNFLKEDAMKTKTHYHAMHADCLQELRRYLKSGVVLRRTVPPMVQVTRSEASGGSGDRVTITCRASQDVSTAVAWYQQKPGKAPKLLIYSASFLYSGVPSRFSGSGSGTDFTLTISSLQPEDFATYYCQQSYTTPPTFGQGTKVEIKGGSSRSSSSGGGGSGGGGEVQLVESGGGLVQPGGSLRLSCAASGFTFTSTGISWVRQAPGKGLEWVGRIYPTNGSTNYADSVKGRFTISADTSKNTAYLQMNSLRAEDTAVYYCARTYGIYDLYVDYTEYVMDYWGQGTLVTVSSGGSSRSSSSGGGGSGGGGDIQMTQSPSSLSASGGSGQITVTCRASGFYPWNITLSWRQDGVSLSHDTQQWGDVLPDGQGTYQTWVATRISQGEEQRFTCYMEHSGQHSTHPVPSGKGSHHHHHH
B2: MICA-α3-iFv.1 (designed binder)
chain: EPHSLRYNLTVLSWDGSVQSGFLTEVHLDGQPFLRCDRQKCRAKPQGQWAEDVLGNKTWDRETRDLTGNGKDLRMTLAHIKDQKEGLHSLQEIRVCEIHEDNSTRSSQHFYYDGELFLSQNLETKEWTMPQSSRAQTLAMNVRNFLKEDAMKTKTHYHAMHADCLQELRRYLKSGVVLRRTVPPMVQVTRSEASGDRVTITCRASQDVSTAVAWYQQKPGKAPKLLIYSASFLYSGVPSRFSGSGSGTDFTLTISSLQPEDFATYYCQQSYTTPPTFGQGTKVEIKGGSSRSSSSGGGGSGGGGEVQLVESGGGLVQPGGSLRLSCAASGFTFTSTGISWVRQAPGKGLEWVGRIYPTNGSTNYADSVKGRFTISADTSKNTAYLQMNSLRAEDTAVYYCARTYGIYDLYVDYTEYVMDYWGQGTLVTVSSGGSSRSSSSGGGGSGGGGDIQMTQSPSSLSASGQITVTCRASGFYPWNITLSWRQDGVSLSHDTQQWGDVLPDGQGTYQTWVATRISQGEEQRFTCYMEHSGQHSTHPVPSGKGSHHHHHH

Assays:
FGFR3 (coated on wells) [1] = target: FGFR3 (coated on wells) (UniProt P22607); experiment: ELISA on FGFR3-coated wells after 1 hour at 60 C and 1 hour back at room temperature [panel A]
FGFR3 (coated on wells) [2] = target: T1, FGFR3 (coated on wells) (UniProt P22607 23-375, limits assumed); experiment: ELISA on FGFR3-coated wells after 1 hour at 80 C and 1 hour back at room temperature [panel B]
T1 construct: Coated at 2 ug/ml on Maxisorp plates; also called Fibroblast Growth Factor Receptor 3
T1 sequence (looked up): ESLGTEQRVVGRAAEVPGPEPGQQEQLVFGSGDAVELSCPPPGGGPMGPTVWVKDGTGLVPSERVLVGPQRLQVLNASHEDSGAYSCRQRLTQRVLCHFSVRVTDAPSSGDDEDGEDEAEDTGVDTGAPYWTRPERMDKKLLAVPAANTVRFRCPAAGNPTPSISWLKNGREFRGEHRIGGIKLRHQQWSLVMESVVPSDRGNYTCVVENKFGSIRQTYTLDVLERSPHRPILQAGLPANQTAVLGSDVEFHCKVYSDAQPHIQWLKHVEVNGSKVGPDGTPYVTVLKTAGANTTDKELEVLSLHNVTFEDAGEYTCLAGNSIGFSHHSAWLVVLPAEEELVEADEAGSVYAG

FGFR3 (coated on wells) [3] = target: T1, FGFR3 (coated on wells); experiment: ELISA on FGFR3-coated wells (2 ug/ml), bound sMICA detected with NKG2D-Fc and anti-Fc-HRP
Description: The purified MICA-α3-iFv proteins were tested in a FGFR3-binding ELISA to confirm simultaneous binding to the FGFR3 target and the NKG2D receptor. FGFR3 in phosphate buffered saline (PBS) was coated onto Maxisorp plates at 2 ug/ml concentration. Each MICA protein was titrated, allowed to bind FGFR3 for 1 hour, and washed to remove unbound sMICA protein. The bound MICA-α3-iFv protein was detected using NKG2D-Fc and anti-Fc-HRP conjugate.

Molecule | EC50 (read off the curve) (FGFR3 (coated on wells) [1]) [nM] | EC50 (read off the curve) (FGFR3 (coated on wells) [2]) [nM] | EC50 (read off the curve) (FGFR3 (coated on wells) [3]) [nM]
MICA-scFv (traditional scFv constructed from MAbR3 fused to the C-terminus of soluble MICA) (from UniProt Q29983 24-307) (designed binder) | 5 | – | –
B1 | – | ~5 | ~2
B2 | – | – | ~1
